B1: TPR t1 (parent)
chain: GACCAAUCUGCCCUCAGAGCUCGAGAACAUCUUCGGAUGCAGAGGAGGCAGGCUUCGGUGGCGCGAUAGCGCCAACGUCCUCAACCUCCAAUGCAUCCCACCACAUGAUGAUGCCUGAAGAGCCUUGGUUUUUUG

Variants of: B1
Test: polymerase ribozyme fitness, log enrichment relative to wild type (log ratio); higher = more active; in vitro selection for triplet polymerase activity
Summary of the method: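 Input and output libraries were sequenced on Illumina after a single in vitro selection round, run in triplicate on PCR-built, transcribed mutant libraries of each subunit of a heterodimeric triplet polymerase ribozyme. Selection annealed libraries to a biotinylated primer, the partner subunit and triplets, incubated them frozen at −7 °C, then gel-excised extended constructs for streptavidin-bead capture and RT-PCR. Genotypes with ≥10 input reads and ≥1 read per output were kept. Fitness is the logarithm, taken in base 2, of genotype enrichment divided by wild-type enrichment, using inverse-variance-weighted replicate averages.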

Variant | polymerase ribozyme fitness (log ratio)
G19C C62U U112G | -6.55
C20A C22U U59G C82A A111U | -5.49
C20G C115U A121C | -6.48
G19U C40U G47U G61A U106A C123U | -6.98
C20A C115G | -4.5
C20G G60C | -4.55
C20G G42U G113C | -3.64
C20G C73A C115G | -5.35
C20G G110C G120C | -6.34
G19C G42C G110U G113A | -5.33
G19U C94A A105C C114A A118U | -0.986
C20A A46U C72U U129A | -6.73
G19C C86A | -2.92
G19C G42A G120U | -2.23
C20G C31U G35U U109G | -4.7
G19U G60A G110U | -6.37
C20A A43U | -3.83
C20G G39C A90U C94U G113U C115U U116G | -1.36
C20A A27G C40G U55C G71C G113A | -3.84
G19U A75G | -3.56
G19A U112G | -3.87

Variant | polymerase ribozyme fitness (log ratio)
G19U C89G | -4.36
C20A G39A C80U A91C | -6.34
C20A C86A U112A U125G U126G | -1.97
G19A G61C C73U C89A C114U U131G | -5.3
C20A U129C | -3.02
C20A C86G C89U A119U | -6.11
G19C A66C C114U U116C | -3.53
C20A G48U U55C | -3.81
G19U C115G U130G | -5.08
C20G G135U | -4.02
G19C C22G C72U | -4.44
C20G C64A C70G G113A U125G U133G | -5.92
C20G U106A | -4.68
C20G G52C A95G C102A C115U | -6.79
C20A G60U U92C A121C | -2.4
G19C G42U G45C C79A C82G | -4.37
G19C C115G | -2.22
G19U A37C | -3.64
C20A A37C G47C A83U U133G | -4.54
G19A A74C | -3.23
C20A C62G C115U G122U | -6.79

Variant | polymerase ribozyme fitness (log ratio)
C20G U96G | -3.91
C20A A50U | -4.4
G19A C40U U112A | -0.444
G19A G60A U87A C114G | -3.18
G19U A46C G52C U54C U96C C114A | 0.227
G19U A37U U55G | -4.52
C20A C22G G71A A121G | -3.88
G19A G60A C101A U106A A119U C123U | -5
G19U G71A | -3.31
C20G A41U C104A G113A U132C | -5.25
G19A G60A A95U | -3.51
G19C G44A G61A U125G | -2.72
G19A A91G G117A | -5.25
C20A G61C | -4.5
G19A G44U | -3.1
G19U A46U G60A | -3.83
G19U A37C C56U A84C | -3.87
C20G A75U | -4.41
C20A G52U C62U U96G G120A | -3.86
G19A G47A | -4.12
G19U C88U | -3.2

Variant | polymerase ribozyme fitness (log ratio)
G19A G35C C53G C114G | -6.59
G19U G71A U78A | -4.64
C20A C56A C82U | -3.22
C20A C56U C80U | -4.41
C20A G122A C123G | -0.681
C20A G45A G113U | -0.291
C20A A121U | -0.837
C20G G25C | -6.42
G19U U59G U106G U112A | -2.43
C20U A26C C89U C124A | -4.83
G19U C53G C73A U112A | -1.03
C20A C53A U59A G69C | -4
G19A C49G C85U A111C | -2.99
C20A C40U | -3.35
G19A U87G U109G | -4.8
C20G G58A C89G G117U | -4.04
G19U G69U G110C | -3.55
C20A G47A | -3.54
C20G A91C C114U | -2.15
C20G A118G | -5.96
C20A C72G A75U C85A G110U | -5.51

From the RNAGym collection of RNA variant scans (doi:10.1073/pnas.2313332121)
